Results on 18 molecules are retold here after patent US20190175744A1 (Merck Sharp & Dohme, published 2019).

Starred links: 1 amine or outer side, 2 acyl side, 3 side chain; linkers in the order of their positions; H or OH if unused. Non-standard residues stand in square brackets, D forms with d. Groups on a side chain read outwards from the residue. No end group written: not given here. *: point of attachment. C16N3 = 16-azido-hexadecanoic acid, [N-]=[N+]=NCCCCCCCCCCCCCCCC(=O)*; C5N3 = 5-azido pentinoic acid, [N-]=[N+]=NCCCCC(=O)*; Lys(N3) = [N-]=[N+]=NCCCC[C@H](N)C(=O)O; γGlu = O=C(O)[C@H](CCC(=O)[*:2])N[*:1]; Met(O2) = CS(=O)(=O)CC[C@H](N)C(=O)O; Palmitoyl = CCCCCCCCCCCCCCCC(=O)*; AEEA = NCCOCCOCC(=O)O; Aib = CC(C)(N)C(=O)O

In one experiment the target is human glucagon receptor (human, UniProt P47871 26-477). Put plainly: cell-based or functional assay.
The next experiment concerns the target human GLP-1 receptor (human, UniProt P43220 24-463). Put plainly: cell-based or functional assay.

B1: PEP2 (peptide)
peptide: H[Aib]QGTFTSDK([γGlu-γGlu-Palmitoyl])SKYLDERAAQDFV[Lys(N3)]WLLDGRG-NH2
On to B1, for which the “hGCGR_EC50 (cAMP activity assay)” value with human glucagon receptor turned out to be 0.11 nM.

B2: PEP1 (peptide)
peptide: H[dS]QGTFTSDK([γGlu-γGlu-Palmitoyl])SKYLDERAAQ[Lys(N3)]FVQWLLDT-NH2
In the case of B2, the “hGCGR_EC50 (cAMP activity assay)” value in the experiment with human glucagon receptor amounted to 0.01 nM.

B3: PEP14 (peptide)
peptide: HXQGTFTSDKSKYLDERAAQDFVKWLLDT
modifications: D-Ser (s) at 2; Lys 10 K(γEγEC16); Lys 24 K(PEG2-C5N3); C-terminal amide
Regarding B3, the “hGCGR_EC50 (cAMP activity assay)” value with human glucagon receptor was 0.05 nM. In addition, in the experiment with human GLP-1 receptor, the “hGLP1R EC50 (cAMP activity assay)” value was 0.07 nM.

B4: PEP74 (peptide)
peptide: HXQGTFTSDKSKYLDERAAQDFVXWLLDT
modifications: D-Ser (s) at 2; Lys 10 K(γEγEC16); Nle(εN3) at 24; C-terminal amide
As to B4, the “hGLP1R EC50 (cAMP activity assay)” value with human GLP-1 receptor stood at 0.05 nM.

B5: PEP20 (peptide)
peptide: H[Aib]QGTFTSDK([γGlu-γGlu-Palmitoyl])SKYLD[Aib]RAAQDFVQWLLDTKK([AEEA-C5N3])-NH2
Regarding B5, the “hGCGR_EC50 (cAMP activity assay)” value with human glucagon receptor turned out to be 0.1 nM. Moreover, in the experiment with human GLP-1 receptor, the “hGLP1R EC50 (cAMP activity assay)” value worked out at 0.05 nM.

B6: PEP25 (peptide)
peptide: HXQGTFTSDYSKYLDERAAQDFVKWLLDT
modifications: D-Ser (s) at 2; Lys 24 K(PEG2PEG2γE-C16N3); C-terminal amide
Take B6: the “hGCGR_EC50 (cAMP activity assay)” value in the experiment with human glucagon receptor was 0.04 nM. Moreover, the “hGLP1R EC50 (cAMP activity assay)” value with human GLP-1 receptor is 0.05 nM.

B7: PEP27 (peptide)
peptide: H[dS]QGTFTSDYSKYLDERAAQK([AEEA-AEEA-γGlu-C16N3])FVQWLLDT-NH2
modifications: N-terminus assumed
SMILES: CC(C)C[C@H](NC(=O)[C@H](Cc1ccc(O)cc1)NC(=O)[C@H](CCCCN)NC(=O)[C@H](CO)NC(=O)[C@H](Cc1ccc(O)cc1)NC(=O)[C@H](CC(=O)O)NC(=O)[C@H](CO)NC(=O)[C@@H](NC(=O)[C@H](Cc1ccccc1)NC(=O)[C@@H](NC(=O)CNC(=O)[C@H](CCC(N)=O)NC(=O)[C@@H](CO)NC(=O)[C@@H](N)Cc1c[nH]cn1)[C@@H](C)O)[C@@H](C)O)C(=O)N[C@@H](CC(=O)O)C(=O)N[C@@H](CCC(=O)O)C(=O)N[C@@H](CCCNC(=N)N)C(=O)N[C@@H](C)C(=O)N[C@@H](C)C(=O)N[C@@H](CCC(N)=O)C(=O)N[C@@H](CCCCNC(=O)COCCOCCNC(=O)COCCOCCNC(=O)CC[C@H](NC(=O)CCCCCCCCCCCCCCCN=[N+]=[N-])C(=O)O)C(=O)N[C@@H](Cc1ccccc1)C(=O)N[C@H](C(=O)N[C@@H](CCC(N)=O)C(=O)N[C@@H](Cc1c[nH]c2ccccc12)C(=O)N[C@@H](CC(C)C)C(=O)N[C@@H](CC(C)C)C(=O)N[C@@H](CC(=O)O)C(=O)N[C@H](C(N)=O)[C@@H](C)O)C(C)C
On to B7, for which the “hGCGR_EC50 (cAMP activity assay)” value with human glucagon receptor was determined as 0.39 nM. In addition, in the experiment with human GLP-1 receptor, the “hGLP1R EC50 (cAMP activity assay)” value is 0.06 nM.

B8: PEP21 (peptide)
peptide: HXQGTFTSDKSKYLDXRAAQDFVQWLLDTKK
modifications: Aib (U) at 2 and 16; Lys 10 K(γEγEC16); Lys 31 K(PEG2PEG2-C5N3); C-terminal amide
Regarding B8, the “hGCGR_EC50 (cAMP activity assay)” value in the experiment with human glucagon receptor was 0.08 nM. For the same molecule, the “hGLP1R EC50 (cAMP activity assay)” value with human GLP-1 receptor was 0.07 nM.

B9: PEP17 (peptide)
peptide: H[dS]QGTFTSDK([γGlu-γGlu-Palmitoyl])SKYLDERAAK([AEEA-AEEA-C5N3])DFVQWLLDT-NH2
For the molecule B9, the “hGCGR_EC50 (cAMP activity assay)” value with human glucagon receptor was 0.06 nM. Also, in the experiment with human GLP-1 receptor, the “hGLP1R EC50 (cAMP activity assay)” value turned out to be 0.05 nM.

B10: PEP22 (peptide)
peptide: H[Aib]QGTFTSDK([γGlu-γGlu-Palmitoyl])SKYLD[Aib]RAAQDFV[Lys(N3)]WLLDTK[γGlu]-NH2
modifications: N-terminus assumed
SMILES: CCCCCCCCCCCCCCCC(=O)N[C@@H](CCC(=O)N[C@@H](CCC(=O)NCCCC[C@H](NC(=O)[C@H](CC(=O)O)NC(=O)[C@H](CO)NC(=O)[C@@H](NC(=O)[C@H](Cc1ccccc1)NC(=O)[C@@H](NC(=O)CNC(=O)[C@H](CCC(N)=O)NC(=O)C(C)(C)NC(=O)[C@@H](N)Cc1c[nH]cn1)[C@@H](C)O)[C@@H](C)O)C(=O)N[C@@H](CO)C(=O)N[C@@H](CCCCN)C(=O)N[C@@H](Cc1ccc(O)cc1)C(=O)N[C@@H](CC(C)C)C(=O)N[C@@H](CC(=O)O)C(=O)NC(C)(C)C(=O)N[C@@H](CCCNC(=N)N)C(=O)N[C@@H](C)C(=O)N[C@@H](C)C(=O)N[C@@H](CCC(N)=O)C(=O)N[C@@H](CC(=O)O)C(=O)N[C@@H](Cc1ccccc1)C(=O)N[C@H](C(=O)N[C@@H](CCCCN=[N+]=[N-])C(=O)N[C@@H](Cc1c[nH]c2ccccc12)C(=O)N[C@@H](CC(C)C)C(=O)N[C@@H](CC(C)C)C(=O)N[C@@H](CC(=O)O)C(=O)N[C@H](C(=O)N[C@@H](CCCCN)C(=O)N[C@@H](CCC(N)=O)C(=O)O)[C@@H](C)O)C(C)C)C(=O)O)C(=O)O
B10: the “hGLP1R EC50 (cAMP activity assay)” value in the experiment with human GLP-1 receptor worked out at 0.07 nM.

B11: PEP16 (peptide)
peptide: H[dS]QGTFTSDK([γGlu-γGlu-Palmitoyl])SKYLDERAAK([AEEA-C5N3])DFVQWLLDT-NH2
Take B11: the “hGCGR_EC50 (cAMP activity assay)” value in the experiment with human glucagon receptor stood at 0.05 nM. In the experiment with human GLP-1 receptor, the “hGLP1R EC50 (cAMP activity assay)” value came out at 0.06 nM.

B12: PEP26 (peptide)
peptide: H[dS]QGTFTSDYSKYLDERAAK([AEEA-AEEA-γGlu-C16N3])DFVQWLLDT-NH2
Regarding B12, the “hGCGR_EC50 (cAMP activity assay)” value in the experiment with human glucagon receptor is 0.12 nM. In addition, the “hGLP1R EC50 (cAMP activity assay)” value with human GLP-1 receptor came to 0.12 nM.

B13: PEP29 (peptide)
peptide: HXQGTFTSDKSKYLDERAAQDFVXWLLDT
modifications: D-Ser (s) at 2; Lys 10 K(PEG2PEG2γEC18-OH); Nle(εN3) at 24; C-terminal amide
Regarding B13, the “hGCGR_EC50 (cAMP activity assay)” value with human glucagon receptor was 3.26 nM. In the experiment with human GLP-1 receptor, the “hGLP1R EC50 (cAMP activity assay)” value was 3.28 nM.

B14: PEP13 (peptide)
peptide: H[dS]QGTFTSDK([γGlu-γGlu-Palmitoyl])SKYLDSRRAHDFV[Lys(N3)]WLLNT-NH2
modifications: N-terminus assumed
SMILES: CCCCCCCCCCCCCCCC(=O)N[C@@H](CCC(=O)N[C@@H](CCC(=O)NCCCC[C@H](NC(=O)[C@H](CC(=O)O)NC(=O)[C@H](CO)NC(=O)[C@@H](NC(=O)[C@H](Cc1ccccc1)NC(=O)[C@@H](NC(=O)CNC(=O)[C@H](CCC(N)=O)NC(=O)[C@@H](CO)NC(=O)[C@@H](N)Cc1c[nH]cn1)[C@@H](C)O)[C@@H](C)O)C(=O)N[C@@H](CO)C(=O)N[C@@H](CCCCN)C(=O)N[C@@H](Cc1ccc(O)cc1)C(=O)N[C@@H](CC(C)C)C(=O)N[C@@H](CC(=O)O)C(=O)N[C@@H](CO)C(=O)N[C@@H](CCCNC(=N)N)C(=O)N[C@@H](CCCNC(=N)N)C(=O)N[C@@H](C)C(=O)N[C@@H](Cc1c[nH]cn1)C(=O)N[C@@H](CC(=O)O)C(=O)N[C@@H](Cc1ccccc1)C(=O)N[C@H](C(=O)N[C@@H](CCCCN=[N+]=[N-])C(=O)N[C@@H](Cc1c[nH]c2ccccc12)C(=O)N[C@@H](CC(C)C)C(=O)N[C@@H](CC(C)C)C(=O)N[C@@H](CC(N)=O)C(=O)N[C@H](C(N)=O)[C@@H](C)O)C(C)C)C(=O)O)C(=O)O
For the molecule B14, the “hGCGR_EC50 (cAMP activity assay)” value with human glucagon receptor came out at 0.04 nM. Besides, in the experiment with human GLP-1 receptor, the “hGLP1R EC50 (cAMP activity assay)” value came out at 0.1 nM.

B15: PEP3 (peptide)
peptide: H[Aib]QGTFTSDK([γGlu-γGlu-Palmitoyl])SKYLD[Aib]RAAQDFV[Lys(N3)]WL[Met(O2)]KGRG-NH2
On to B15, for which the “hGCGR_EC50 (cAMP activity assay)” value with human glucagon receptor is 0.07 nM.

B16: PEP11 (peptide)
peptide: HXQGTFTSDKSKYLDERAAQDFVXWLLXT
modifications: D-Ser (s) at 2; Lys 10 K(γEγEC16); Nle(εN3) at 24; γE at 28; C-terminal amide
Consider B16, for which, in the experiment with human GLP-1 receptor, the “hGLP1R EC50 (cAMP activity assay)” value amounted to 0.06 nM.

B17: PEP6 (peptide)
peptide: H[Aib]QGTFTSDK([γGlu-γGlu-Palmitoyl])SKYLD[Aib]RRAQDFVQWLLDT[Lys(N3)][γGlu]-NH2
modifications: N-terminus assumed
SMILES: CCCCCCCCCCCCCCCC(=O)N[C@@H](CCC(=O)N[C@@H](CCC(=O)NCCCC[C@H](NC(=O)[C@H](CC(=O)O)NC(=O)[C@H](CO)NC(=O)[C@@H](NC(=O)[C@H](Cc1ccccc1)NC(=O)[C@@H](NC(=O)CNC(=O)[C@H](CCC(N)=O)NC(=O)C(C)(C)NC(=O)[C@@H](N)Cc1c[nH]cn1)[C@@H](C)O)[C@@H](C)O)C(=O)N[C@@H](CO)C(=O)N[C@@H](CCCCN)C(=O)N[C@@H](Cc1ccc(O)cc1)C(=O)N[C@@H](CC(C)C)C(=O)N[C@@H](CC(=O)O)C(=O)NC(C)(C)C(=O)N[C@@H](CCCNC(=N)N)C(=O)N[C@@H](CCCNC(=N)N)C(=O)N[C@@H](C)C(=O)N[C@@H](CCC(N)=O)C(=O)N[C@@H](CC(=O)O)C(=O)N[C@@H](Cc1ccccc1)C(=O)N[C@H](C(=O)N[C@@H](CCC(N)=O)C(=O)N[C@@H](Cc1c[nH]c2ccccc12)C(=O)N[C@@H](CC(C)C)C(=O)N[C@@H](CC(C)C)C(=O)N[C@@H](CC(=O)O)C(=O)N[C@H](C(=O)N[C@@H](CCCCN=[N+]=[N-])C(=O)N[C@@H](CCC(N)=O)C(=O)O)[C@@H](C)O)C(C)C)C(=O)O)C(=O)O
Regarding B17, the “hGCGR_EC50 (cAMP activity assay)” value with human glucagon receptor came out at 0.07 nM. Moreover, the “hGLP1R EC50 (cAMP activity assay)” value in the experiment with human GLP-1 receptor came out at 0.17 nM.

B18: PEP28 (peptide)
peptide: H[Aib]QGTFTSDYSKYLD[Aib]RAAQDFVQWLLDTKK([AEEA-AEEA-γGlu-C16N3])-NH2
modifications: N-terminus assumed
SMILES: CC(C)C[C@H](NC(=O)[C@H](Cc1c[nH]c2ccccc12)NC(=O)[C@H](CCC(N)=O)NC(=O)[C@@H](NC(=O)[C@H](Cc1ccccc1)NC(=O)[C@H](CC(=O)O)NC(=O)[C@H](CCC(N)=O)NC(=O)[C@H](C)NC(=O)[C@H](C)NC(=O)[C@H](CCCNC(=N)N)NC(=O)C(C)(C)NC(=O)[C@H](CC(=O)O)NC(=O)[C@H](CC(C)C)NC(=O)[C@H](Cc1ccc(O)cc1)NC(=O)[C@H](CCCCN)NC(=O)[C@H](CO)NC(=O)[C@H](Cc1ccc(O)cc1)NC(=O)[C@H](CC(=O)O)NC(=O)[C@H](CO)NC(=O)[C@@H](NC(=O)[C@H](Cc1ccccc1)NC(=O)[C@@H](NC(=O)CNC(=O)[C@H](CCC(N)=O)NC(=O)C(C)(C)NC(=O)[C@@H](N)Cc1c[nH]cn1)[C@@H](C)O)[C@@H](C)O)C(C)C)C(=O)N[C@@H](CC(C)C)C(=O)N[C@@H](CC(=O)O)C(=O)N[C@H](C(=O)N[C@@H](CCCCN)C(=O)N[C@@H](CCCCNC(=O)COCCOCCNC(=O)COCCOCCNC(=O)CC[C@H](NC(=O)CCCCCCCCCCCCCCCN=[N+]=[N-])C(=O)O)C(N)=O)[C@@H](C)O
B18: the “hGCGR_EC50 (cAMP activity assay)” value with human glucagon receptor was 0.17 nM. Also, the “hGLP1R EC50 (cAMP activity assay)” value with human GLP-1 receptor was found to be 0.16 nM.
